{"source": "paper PMC6547806", "target": "Angiomotin (Amot80) coiled-coil homology (ACCH) domain, wild type", "experiment": "SEC"}
{"substance": "Angiomotin (Amot80) coiled-coil homology (ACCH) domain, wild type (domain or fragment)", "values": [{"measurement": "stoichiometry N", "result": 4}]}
